Assay [1] concerns the target T1, Human CD47 recombinant protein (Human CD47 His Tag), ACRO Biosystems Cat. No. CD7-H5227 (human, UniProt Q08722 19-139).
T1 construct: bought protein; also called huCD47-His; huCD47; not shown: His tag
Put plainly: competition ELISA: huCD47-His coated, VHH against 5 nM SIRPα-mIgG1. How it is done: 100 μl of 1 μg/mL huCD47-His antigen (purchased from ACRO Biosystems, Cat. No. CD7-H5227) was add to a 96-well plate, and coated overnight at 4° C. The plate was washed three times with 250 μl of PBST, and added 100 μl of purified VHH to the final concentrations of 500, 50, 5, and 0.5 nM, respectively, and incubated at room temperature for 1 h. […] After washing the plate three times with PBST, goat anti-mouse HRP-conjugate (purchased from Invitrogen, Cat. No. 31430) diluted 1:5000 was added and incubated for 45 mins. After washing the plate three times with 250 μl of PBST, TMB (purchased from Cell Signaling Technology, Cat. No. 7004) as a chromogenic substrate was added and developed color for 10 mins. After quenching the reaction with 0.5M HCl, data was read on a microplate reader.

For assay [2], the target named is T2, human CD47 on the cell membrane surface of CD47 positive tumor cells (Raji, NUGC-4, Jurkat) (human, UniProt Q08722 19-323).
T2 construct: whole, on cells; also called huCD47 on the cell membrane surface; cell surface CD47
The experiment in a line: FACS on Raji cells, VHH 0.5 µg/mL. How it is done:
(§1) Antibodies that can bind to CD47 positive cells were screened by flow cytometry (FACS). Human Burkitt's lymphoma cells Raji (purchased from the Cell Bank of the Chinese Academy of Sciences, Cat. No. TCHu 44) were cultured in RPMI-1640 medium (purchased from Gibco, Cat. No. 11875-093) comprising 10% fetal bovine serum FBS (purchased from Gibco, Cat. No. 1009141) at 37° C. with 5% CO₂.
(§2) Raji cells were collected by centrifugation at 800 rpm for 3 mins, rinsed once with PBS+1% FBS and resuspended for counting. In a 96-well plate, 1×10⁵ Raji cells were added to each well, and then the VHH (purified) samples were added in a gradient dilution. The final concentrations of VHH were 5, 0.5, and 0.05 μg/mL, respectively. After mixing, it was mixed with Raji cells and incubateed at room temperature for 1 h. Raji cells were collected by centrifugation at 1400 rpm for 3 mins. […] The cells were rinsed twice with PBS+1% FBS and analyzed on an iQuePlus flow cytometer.
(§3) The mean fluorescence intensity (MFI) of the control well with only fluorescent secondary antibody was used as the mean fluorescence intensity of the background value, and the multiple of the mean fluorescence intensity of the sample and the mean fluorescence intensity of the background value was used to evaluate the binding strength of the VHH single-domain antibody to Raji cells.

Assay [3] has as its target T2, human CD47 on the cell membrane surface …. Put plainly: FACS on Raji cells, VHH 0.05 µg/mL. How it is done: as §1, §2, §3
Assay [4] shares this target. Put plainly: FACS on Raji cells, VHH 5 µg/mL. How it is done: as §1, §2, §3
Assay [5] concerns the target T3, CD47 on cynomolgus macaque platelets (cynomolgus macaque, UniProt A0A5F8AK49 19-323 (rhesus entry)).
T3 construct: whole, on cells
The experiment in a line: flow cytometry, cynomolgus macaque platelets, animal 186#. For orientation: A flow cytometer gives signals particle by particle.

Assay [6] addresses T1, Human CD47 recombinant protein (Human …). Put plainly: SPR BIAcore 8K, antibody captured by anti-human IgG Fc on CM5, huCD47 (His tag) in flow, 25 C, 1:1 model. How it is done: The binding time of the huCD47 to the antibody was 180 s, the dissociation time was 900 s, and the reaction temperature was 25° C. The binding constant ka, the dissociation constant kd and the affinity KD were calculated by FitGlobal using BIAcore 8K Evaluation software (GE Healthcare) according to the 1:1 binding model.
In general terms: Surface plasmon resonance follows binding to a sensor surface in real time, without labels.

Assay [7] has as its target T3, CD47 on cynomolgus macaque platelets. Put plainly: flow cytometry, cynomolgus macaque platelets, animal 194#.
Assay [8] addresses T4, CD47 on human erythrocytes (human, UniProt Q08722 19-323).
T4 construct: whole, on cells; Kept apart from m1 because the same antibodies behave differently on these cells
The experiment in a line: flow cytometry, human erythrocytes.

The target of assay [9] is T5, CD47 on human platelets (human, UniProt Q08722 19-323).
T5 construct: whole, on cells
The experiment in a line: flow cytometry, human platelets. How it is done:
(§4) After the platelets were counted with a hemocytometer, the density of the platelets was adjusted to 1.5×10⁷/mL with PBS+1% FBS, and 100 μL of above sample was added to each well of a 96-well U-shaped plate. […] After incubating at 4° C. for 1 h, the samples were centrifuged at 1000 rpm for 3 mins and rinsed once with PBS+1% FBS. 100 μl of 1:1000 diluted goat anti-human IgG (H+L)-AlexaFluor488 (purchased from eBioscience, Cat. No. A11013) was added to each well, and incubated at 4° C. for 45 mins. The samples were centrifuged at 1000 rpm for 3 mins, rinsed twice with PBS+1% FBS, resuspended in 200 μl of PBS+1% FBS, and transferred to a flow tube for on-board detection.

Assay [10] concerns the target T5, CD47 on human platelets. The experiment in a line: flow cytometry, human platelets. How it is done:
as §4
This is another data set of the same source.

The target of assay [11] is T6, biotinylated-CD47 (ACRO Biosystems Cat. No. CD7-H82E9) (UniProt Q08722 19-139, biotinylated (site not stated)).
T6 construct: also called CD47 recombinant protein
The experiment in a line: competition ELISA; blocked: biotinylated-CD47 binding to coated SIRPα-His. How it is done: After rinsing 4 times with PBST, 200 μl of PBS+1% BSA was added to each well, blocking for 1 h at room temperature, and rinsing 4 times with PBST. […] The 96-well plate was rinsed 4 times with PBST, 100 μl of Steptavidin-HRP (Invitrogen #434323) diluted 1:2500 was added to each well, and incubated at room temperature for 1 h. After rinsing the 96-well plate four times with PBST, 100 μl of TMB substrate (Cell Signaling, Cat. No. 7004) was added to each well, and after color development at room temperature for 10 mins, 50 μl of stop solution was added to stop the reaction.
A general note: ELISA stands for enzyme-linked immunosorbent assay.

The target in assay [12] is T4, CD47 on human erythrocytes. Put plainly: flow cytometry, human erythrocytes, first individual.
The target of assay [13] is T3, CD47 on cynomolgus macaque platelets. The experiment in a line: flow cytometry, cynomolgus macaque platelets, animal 567#.
The target of assay [14] is T4, CD47 on human erythrocytes. Put plainly: flow cytometry, human erythrocytes, second individual.
Assay [15] concerns the target T7, CD47 on cynomolgus macaque erythrocytes (cynomolgus macaque, UniProt A0A5F8AK49 19-323 (rhesus entry)).
T7 construct: whole, on cells
The experiment in a line: flow cytometry on cynomolgus macaque erythrocytes of 4 animals.

Where two headings read alike, the source gives them in different places.

B1: DX-36698 VHH single-domain antibody (VHH)
VHH: QVQLVESGGGLVQAGGSLRLSCAASVRTFSIYAMGWFRQAPGKDREFVGAISGRGYTTYYVDSVKGRFTISRDNAKNTVYLQMNSLKPEDTAVYYCAADLYGSRRYADRESYDYWGQGTQVTVSS
notes: purified from E. coli (NiNTA)
The term IC50 denotes the concentration needed to halve the response being measured. As for B1, in assay [1], the concentration for half-maximal inhibition (IC50) came out at 616 nM. The “Mean fluorescence intensity (multiple)” value in [2] amounted to 142 fold; in assay [3] it was 43.5 fold; in assay [4] it was 204 fold.

B2: control antibody 5F9 (antibody, human IgG4 S228P, kappa)
heavy: not shown
light: DVLMTQTPLSLPVSLGDQASISCRSSQSIVYSNGNTYLGWYLQKPGQSPKLLIYKVSNRFSGVPDRFSGSGSGTDFTLKISRVEAEDLGVYHCFQGSHVPYTFGGGTKVEIKRTVAAPSVFIFPPSDEQLKSGTASVVCLLNNFYPREAKVQWKVDNALQSGNSQESVTEQDSKDSTYSLSSTLTLSKADYEKHKVYACEVTHQGLSSPVTKSFNRGEC
notes: also called 5F9 antibody
Usually EC50 (read off the curve) stands for the midpoint of the concentration-response curve. A lower EC50 (read off the curve) goes with a more potent agent. As usually defined, the Kd is the free concentration of one partner at which half of the binding sites on the other are occupied at equilibrium, for simple one-to-one binding. What is called koff is a measure of how fast the partners let go of each other. The kon is a measure of how fast the partners come together. Usually EC50 stands for the concentration at which the effect is half-maximal. The low end stands for higher potency in that assay, the high end for lower potency in that assay. Consider B2, for which the “EC50 (read off the curve)” value in assay [5] was about 0.3 µg/mL; in assay [7], about 0.3 µg/mL; in assay [8], about 2 nM; with CD47 on human platelets [9], about 0.8 µg/mL; with CD47 on human platelets [10], about 0.02 µg/mL; in assay [12], about 0.03 µg/mL. The “EC50 (read off the curve)” value in [13] is about 0.5 µg/mL; in assay [14], about 0.02 µg/mL. Besides, the Kd in assay [6] was found to be 7.68 nM. Moreover, in assay [6], the koff was found to be 0.055 s⁻¹. In addition, the on-rate constant (kon) in assay [6] was 7.16e+06 M⁻¹ s⁻¹. For the same molecule, in assay [11], the “IC50 (read off the curve)” value was about 300 ng/mL. Besides, in [15], the half-maximal effective concentration (EC50) lay in the range of 0.01 to 0.03 µg/mL.

B3: DX-36699 VHH single-domain antibody (VHH)
VHH: DVQLQASGGGSVEAGGSLTLSCLASGFYNMRWYRQAPGNERELVARIGIGGSTDYADSVKGRFTISRGNAKNMVHLQMNSLKPEDTAVYYCWGGGYWGQGTQVTVSS
notes: purified from E. coli (NiNTA)
For B3, in assay [1], the IC50 came out at 15 nM. Also, the “Mean fluorescence intensity (multiple)” value stood at 61.4 fold in [2], 27.2 fold in [3] and 152 fold in [4].

Values taken from patent US20230086530A1 (SHANGHAI ESCUGEN BIOTECHNOLOGY, published 2023).
